Publication PMC5469197, “ANGUSTIFOLIA, a Plant Homolog of CtBP/BARS Localizes to Stress Granules and Regulates Their Formation” (Frontiers in Plant Science, 2017)

Experiments:
[1] = molecular target: T1, TANDEM CCCH ZINC FINGER (TZF) ATC3H14, Prot-A fusion (Arabidopsis thaliana, UniProt Q9C9N3 1-310); assay: co-IP; LUMIER in HEK293TN cells: Prot-A fusion co-transfected with Renilla luciferase fusion (AN always the luciferase fusion with the interactors); luciferase activity before (input) and after pulldown; percentage pulldown = pulldown/input x 100; empty vectors as negative control; positive if more than two times the background; details: partners not purified
T1 construct: Tandem CCCH zinc finger protein ATC3H14, Arabidopsis thaliana, AT1G66810; CDS amplified from Col-0 cDNA; source: HEK293TN cells, transfected; not shown: Protein A (Staphylococcus aureus), N-terminal, kept
T1 sequence (looked up): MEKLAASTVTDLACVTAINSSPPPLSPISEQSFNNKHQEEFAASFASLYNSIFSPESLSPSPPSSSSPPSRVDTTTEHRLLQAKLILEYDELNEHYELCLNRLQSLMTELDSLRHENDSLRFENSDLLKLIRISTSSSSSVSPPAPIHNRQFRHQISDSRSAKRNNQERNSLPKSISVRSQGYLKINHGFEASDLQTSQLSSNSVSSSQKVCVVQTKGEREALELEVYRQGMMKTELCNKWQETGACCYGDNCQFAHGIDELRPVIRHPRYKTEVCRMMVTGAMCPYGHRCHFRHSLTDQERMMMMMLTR

[2] = molecular target: T2, PROTEIN MEI2-LIKE 5 (ATML5), Prot-A fusion (Arabidopsis thaliana, UniProt Q8VWF5 1-800); assay: as above; details: partners not purified
T2 construct: Protein MEI2-like 5, Arabidopsis thaliana, AT1G29400; CDS amplified from Col-0 cDNA; source: HEK293TN cells, transfected; not shown: Protein A (Staphylococcus aureus), N-terminal, kept
T2 sequence (looked up): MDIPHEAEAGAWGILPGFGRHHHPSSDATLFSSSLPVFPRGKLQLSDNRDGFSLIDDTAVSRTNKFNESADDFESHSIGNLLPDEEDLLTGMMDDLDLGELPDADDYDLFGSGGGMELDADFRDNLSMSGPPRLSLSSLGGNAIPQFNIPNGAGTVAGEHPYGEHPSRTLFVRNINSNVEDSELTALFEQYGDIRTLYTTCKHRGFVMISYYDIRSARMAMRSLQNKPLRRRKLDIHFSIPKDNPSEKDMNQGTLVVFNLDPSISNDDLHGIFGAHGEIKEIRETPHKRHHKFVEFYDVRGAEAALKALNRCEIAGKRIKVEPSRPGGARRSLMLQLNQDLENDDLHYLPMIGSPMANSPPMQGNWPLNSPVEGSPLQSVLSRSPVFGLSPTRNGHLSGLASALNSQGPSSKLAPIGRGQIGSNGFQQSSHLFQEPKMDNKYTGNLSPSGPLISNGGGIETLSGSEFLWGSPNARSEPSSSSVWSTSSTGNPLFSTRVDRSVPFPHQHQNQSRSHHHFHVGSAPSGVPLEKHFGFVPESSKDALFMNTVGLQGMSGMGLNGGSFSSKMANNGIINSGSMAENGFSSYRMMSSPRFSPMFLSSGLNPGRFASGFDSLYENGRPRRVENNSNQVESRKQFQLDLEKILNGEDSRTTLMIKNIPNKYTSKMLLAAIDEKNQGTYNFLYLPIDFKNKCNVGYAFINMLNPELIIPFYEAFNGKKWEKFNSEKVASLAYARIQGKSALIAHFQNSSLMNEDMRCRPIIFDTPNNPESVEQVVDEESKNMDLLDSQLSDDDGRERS

fold change from background [1]: 4.92 fold | percentage pulldown [1]: 0.47% | fold change from background [2]: 5.04 fold | percentage pulldown [2]: 0.47%
B1: AN, Renilla luciferase fusion (LUMIER) (natural protein, Arabidopsis thaliana, UniProt O23702 1-636, looked up)
chain: MSKIRSSATMPHRDQPSPASPHVVTLNCIEDCALEQDSLAGVAGVEYVPLSRIADGKIESATAVLLHSLAYLPRAAQRRLRPHQLILCLGSADRAVDSTLAADLGLRLVHVDTSRAEEIADTVMALILGLLRRTHLLSRHALSASGWLGSLQPLCRGMRRCRGMVLGIVGRSVSARYLASRSLAFKMSVLYFDVPEGDEERIRPSRFPRAARRMDTLNDLLAASDVISLHCALTNDTVQILNAECLQHIKPGAFLVNTGSCQLLDDCAVKQLLIDGTIAGCALDGAEGPQWMEAWVKEMPNVLILPRSADYSEEVWMEIREKAISILHSFFLDGVIPSNTVSDEEVEESEASEEEEQSPSKHEKLAIVESTSRQQGESTLTSTEIVRREASELKESLSPGQQHVSQNTAVKPEGRRSRSGKKAKKRHSQQKYMQKTDGSSGLNEESTSRRDDIAMSDTEEVLSSSSRCASPEDSRSRKTPLEVMQESSPNQLVMSSKKFIGKSSELLKDGYVVALYAKDLSGLHVSRQRTKNGGWFLDTLSNVSKRDPAAQFIIAYRNKDTVGLRSFAAGGKLLQINRRMEFVFASHSFDVWESWSLEGSLDECRLVNCRNSSAVLDVRVEILAMVGDDGITRWID
notes: ANGUSTIFOLIA (AN), Arabidopsis thaliana, AT1G01510; CDS amplified from Col-0 cDNA; in the dimerisation test the second copy must have been the N-terminal protein A fusion (surmised from the LUMIER format); also called wild-type AN; source: HEK293TN cells, transfected; not shown: Renilla reniformis luciferase, N-terminal, kept
